From PMC11161652, “ASXLs binding to the PHD2/3 fingers of MLL4 provides a mechanism for the recruitment of BAP1 to active enhancers” (Nature Communications, 2024)
Where a chain is given by its changes, count along the chain named.

Assays:
MLL4_(PHD2/3) E292K [1] = target: MLL4_(PHD2/3) E292K (human, UniProt O14686 227-324, E292K)
MLL4_(PHD2/3) D285K = target: T1, MLL4_(PHD2/3) D285K (human, UniProt O14686 227-324, D285K); assay: not stated; fluorescence spectroscopy or NMR: the legends of Fig. 3c and Fig. 4b say that values marked (a) are from NMR and the others from fluorescence; the text does not tell which for these pairs; conditions: both partners purified
T1 construct: human MLL4 (KMT2D), aa 227-324; source: E. coli BL21-CodonPlus, purified as WT
T1 sequence (looked up): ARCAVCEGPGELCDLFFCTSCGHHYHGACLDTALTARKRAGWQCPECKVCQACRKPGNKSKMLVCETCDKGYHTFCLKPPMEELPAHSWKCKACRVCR

MLL4_(PHD2/3) D257K = target: T2, MLL4_(PHD2/3) D257K (human, UniProt O14686 227-324, D257K); assay: other fluorescence titration; tryptophan fluorescence, 25 °C; 1.0 µM MLL4 PHD2/3 or MLL3 PHD2/3 with increasing peptide; excitation 295 nm; 20 mM Tris pH 7.2, 150 mM NaCl, 1 mM TCEP, 0.02% Tween20; average of three measurements; conditions: both partners purified
T2 construct: human MLL4 (KMT2D), aa 227-324; source: E. coli BL21-CodonPlus, purified as WT
T2 sequence (looked up): T1 sequence (looked up) with D31K, K59D

MLL4_(PHD2/3) S286A = target: T3, MLL4_(PHD2/3) S286A (human, UniProt O14686 227-324, S286A); assay: as above; conditions: both partners purified
T3 construct: human MLL4 (KMT2D), aa 227-324; source: E. coli BL21-CodonPlus, purified as WT
T3 sequence (looked up): T1 sequence (looked up) with K59D, S60A

MLL4_(PHD2/3) E292K [2] = target: T4, MLL4_(PHD2/3) E292K (human, UniProt O14686 227-324, E292K); assay: as above; conditions: both partners purified
T4 construct: human MLL4 (KMT2D), aa 227-324; E292K is said to be found in cancers (Cosmic); source: E. coli BL21-CodonPlus, purified as WT
T4 sequence (looked up): T1 sequence (looked up) with K59D, E66K

MLL4_(PHD2/3) S314A = target: T5, MLL4_(PHD2/3) S314A (human, UniProt O14686 227-324, S314A); assay: as above; conditions: both partners purified
T5 construct: human MLL4 (KMT2D), aa 227-324; source: E. coli BL21-CodonPlus, purified as WT
T5 sequence (looked up): T1 sequence (looked up) with K59D, S88A

[3] = target: T6, PHD2 and PHD3 fingers of human MLL3 (aa 342-439) (human, UniProt Q8NEZ4 342-439); assay: as above; conditions: both partners purified
T6 construct: PHD2 and PHD3 fingers of human MLL3 (KMT2C), aa 342-439; 15N-labelled for NMR titrations; also used unlabelled as the titrant against MLL3 PHD4; also called MLL3_(PHD2/3); MLL3 PHD2/3; source: E. coli BL21-CodonPlus, purified (glutathione agarose, PreScission cleavage; unlabeled proteins also SEC)
T6 sequence (looked up): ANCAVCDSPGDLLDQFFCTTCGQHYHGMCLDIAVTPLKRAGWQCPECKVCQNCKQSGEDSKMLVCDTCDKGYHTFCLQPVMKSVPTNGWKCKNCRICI

[4] = target: T7, PHD2 and PHD3 fingers of human MLL4 (aa 227-324) (human, UniProt O14686 227-324); assay: as above; conditions: both partners purified
T7 construct: PHD2 and PHD3 fingers of human MLL4 (KMT2D), aa 227-324; also called MLL4_(PHD2/3); MLL4 PHD2/3; source: E. coli BL21-CodonPlus, purified (glutathione agarose, PreScission cleavage; unlabeled proteins also SEC)
T7 sequence (looked up): T1 sequence (looked up) with K59D

MLL4_(PHD2/3) E272K = target: T8, MLL4_(PHD2/3) E272K (human, UniProt O14686 227-324, E272K); assay: as above; conditions: both partners purified
T8 construct: human MLL4 (KMT2D), aa 227-324; E272K is said to be found in cancers (Cosmic); source: E. coli BL21-CodonPlus, purified as WT
T8 sequence (looked up): T1 sequence (looked up) with E46K, K59D

Kd (MLL4_(PHD2/3) E292K [1]): 10 µM
Kd (MLL4_(PHD2/3) D285K): ~1700 µM
Kd (MLL4_(PHD2/3) D257K): 27 µM
Kd (MLL4_(PHD2/3) S286A): 0.8 µM
fold reduction in binding against wild type MLL4_(PHD2/3) (MLL4_(PHD2/3) E292K [2]): ~14 fold
Kd (MLL4_(PHD2/3) S314A): 0.8 µM
Kd [3]: 1.4 µM
Kd [4]: 0.7 µM
Kd (MLL4_(PHD2/3) E272K): 28 µM
B1: ASXL2 peptide (residues 650-670 of ASXL2) (peptide, UniProt Q76L83 650-670, looked up)
peptide: NRTGARTLADIKAKAQLVKAQ
notes: also called ASXL2 (aa 650-670); MBH of ASXL2; source: synthetic peptide (SynPeptide)
